The target in experiment [1] is human FcγRIIa (recombinant, Example 1; allotype not stated) (human) (UniProt P12318). Briefly: SPR (BIACORE 3000), His-tagged receptor captured on anti-His IgG, antibody injected; 1:1 steady state fit. (Surface plasmon resonance follows binding to a sensor surface in real time, without labels.)
Experiment [2] has the same target. Briefly: … bead competition: unlabelled test antibody against a biotinylated control antibody (human IgG1 CNT06234 by paragraph 15/paragraph 85; paragraph 86 says 'against IgG2') for recombinant FcgRIIa.
Experiment [3] concerns the target recombinant human FcRn (transmembrane and cytoplasmic domains replaced with a poly-histidine tag) (human) (UniProt P55899). Nature of the experiment: … bead competition: unlabelled test antibody against biotinylated human IgG1 CNT06234 for recombinant FcRn, pH 6.4.
Experiment [4] has as its target human FcγRIIa (recombinant, Example 1; allotype not stated) (human) (UniProt P12318). Briefly: … direct binding (avidity) assay: biotinylated test antibody and recombinant His-tagged FcgRIIa on donor and acceptor beads.
Experiment [5] concerns the target human FcγRI (recombinant, polyhistidine-tagged) (human) (UniProt P12314). Briefly: SPR (BIACORE 3000), His-tagged receptor captured on anti-His IgG, antibody injected; 1:1 kinetic fit.
Experiment [6] has the same target. Nature of the experiment: SPR (BIACORE 3000), His-tagged receptor captured on anti-His IgG, antibody injected; 1:1 steady state fit.
The target in experiment [7] is human FcγRIIIa (recombinant, Example 1) (human) (UniProt P08637). Nature of the experiment: SPR (BIACORE 3000), His-tagged receptor captured on anti-His IgG, antibody injected; 1:1 kinetic fit.
Chain of human FcγRIIIa (recombinant, Example 1) (human) (P08637 17-208 F176V limits assumed): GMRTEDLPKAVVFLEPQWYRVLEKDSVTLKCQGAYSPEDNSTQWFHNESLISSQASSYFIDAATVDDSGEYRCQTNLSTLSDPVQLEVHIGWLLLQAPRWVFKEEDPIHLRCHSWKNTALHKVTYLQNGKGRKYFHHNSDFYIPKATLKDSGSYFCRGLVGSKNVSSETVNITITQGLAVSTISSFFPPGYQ
For experiment [8] the target is unchanged. Briefly: SPR (BIACORE 3000), His-tagged receptor captured on anti-His IgG, antibody injected; 1:1 steady state fit.

Chain of recombinant human FcRn (transmembrane and cytoplasmic domains replaced with a poly-histidine tag) (human) (P55899 other isoform, or with tags, fused parts or gaps, form in doubt): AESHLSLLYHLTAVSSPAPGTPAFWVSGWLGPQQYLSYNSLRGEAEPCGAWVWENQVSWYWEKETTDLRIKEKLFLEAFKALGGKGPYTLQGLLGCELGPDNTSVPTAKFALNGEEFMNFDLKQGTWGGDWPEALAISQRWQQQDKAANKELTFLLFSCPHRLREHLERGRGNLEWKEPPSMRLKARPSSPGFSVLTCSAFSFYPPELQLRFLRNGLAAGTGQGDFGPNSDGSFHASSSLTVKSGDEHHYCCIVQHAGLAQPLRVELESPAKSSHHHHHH
Chain of human FcγRIIa (recombinant, Example 1; allotype not stated) (human) (P12318 36-218 limits assumed): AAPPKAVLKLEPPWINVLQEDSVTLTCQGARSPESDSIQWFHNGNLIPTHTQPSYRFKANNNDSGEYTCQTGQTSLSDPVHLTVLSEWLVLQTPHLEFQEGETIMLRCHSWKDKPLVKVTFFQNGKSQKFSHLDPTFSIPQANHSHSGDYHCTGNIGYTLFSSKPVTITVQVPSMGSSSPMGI
Chain of human FcγRI (recombinant, polyhistidine-tagged) (human) (P12314 16-288 limits assumed): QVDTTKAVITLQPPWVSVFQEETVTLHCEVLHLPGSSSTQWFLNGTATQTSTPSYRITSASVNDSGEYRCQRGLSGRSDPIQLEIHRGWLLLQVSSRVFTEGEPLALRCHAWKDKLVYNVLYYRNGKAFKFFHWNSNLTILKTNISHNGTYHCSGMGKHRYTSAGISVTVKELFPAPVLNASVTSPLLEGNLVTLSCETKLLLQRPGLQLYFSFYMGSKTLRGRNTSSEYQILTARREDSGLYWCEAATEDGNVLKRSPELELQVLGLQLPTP

As a reminder, the Kd is the constant that tells how readily two partners part at equilibrium. A word on the EC50 (read off the curve): it is the midpoint of the concentration-response curve. For “huIgG1 (wild type human IgG1 isotype antibody, anti-Her2/neu construct)”, the figures for the Kd in experiment [1] and in experiment [5] were 1700 nM and 13 nM, respectively. For the same substance, the IC50 (read off the curve) came to 0.006 mg/mL in experiment [2] and 0.07 mg/mL in experiment [3]. In addition, the EC50 (read off the curve) in experiment [4] came to 100 ng/mL.
With “IgG2c4e (human IgG2 P233S, V234A, G237A, P238S, H268A, V309L, A330S, P331S, anti-Her2/neu construct) (antibody)”, in experiment [3], the IC50 (read off the curve) was found to be 0.1 mg/mL.
For the substance “IgG1 Ag (human IgG1 N297A, aglycosylated, anti-Her2/neu construct) (antibody)”, the Kd in experiment [6] worked out at 3.7 µM. For the same substance, in experiment [3], the IC50 (read off the curve) came to 0.1 mg/mL.
For “IgG2c4c (human IgG2 V234A, G237A, H268A, V309L, A330S, P331S, anti-Her2/neu construct) (antibody)”, the Kd in experiment [1] worked out at 19000 nM; in experiment [7] it was 640 nM; in experiment [5], 44 nM. Further, in experiment [2], the IC50 (read off the curve) was found to be 0.06 mg/mL.
On to “IgG4 A/A (human IgG4 S228P, F234A, L235A, anti-Her2/neu construct) (antibody)”, for which the values for the Kd in experiment [8], in experiment [6] and in experiment [1] were 55 µM, 15 µM and 150000 nM, respectively. Besides, the IC50 (read off the curve) in experiment [3] is 0.1 mg/mL.
With “IgG2m4 (human IgG2 H268Q, V309L, A330S, P331S, anti-Her2/neu construct) (antibody)”, the Kd in experiment [8] amounted to 95 µM; in experiment [6], 210 µM; in experiment [1], 2700 nM. In addition, the results for the IC50 (read off the curve) in experiment [2] and in experiment [3] were 0.03 mg/mL and 0.08 mg/mL, respectively. Also, the 50% effective concentration (EC50 (read off the curve)) in experiment [4] is 200 ng/mL.
“IgG2c4b (human IgG2 V234A, G237A, H268Q, V309L, A330S, P331S, anti-Her2/neu construct) (antibody)”: the figures for the Kd in experiment [6] and in experiment [1] were 38 µM and 170000 nM, respectively. The IC50 (read off the curve) in experiment [2] came out at 0.1 mg/mL; in experiment [3], 0.06 mg/mL.
On to “huIgG2 (wild type human IgG2 isotype antibody, anti-Her2/neu construct)”, for which the Kd in experiment [8] was determined as 41 µM; in experiment [6] it was 120 µM; in experiment [1] it was 1000 nM. For the same substance, the IC50 (read off the curve) turned out to be 0.05 mg/mL in experiment [2] and 0.08 mg/mL in experiment [3]. Moreover, in experiment [4], the EC50 (read off the curve) was 200 ng/mL.
With “IgG2c4a (human IgG2 H268A, V309L, A330S, P331S, anti-Her2/neu construct) (antibody)”, the Kd in experiment [8] amounted to 85 µM; in experiment [6] it was 160 µM; in experiment [1], 2200 nM. Further, the IC50 (read off the curve) in experiment [2] is 0.02 mg/mL; in experiment [3], 0.06 mg/mL.

The values are drawn from patent publication US20210155711A1.
